Earlier results on 1 substance are cited in PMC12153800.

This series has as its target FZD10 (Homo sapiens) (UniProt Q9ULW2). As to the kind of experiment: NanoBiT/BRET.

Chain of FZD10 (Homo sapiens) (Q9ULW2 21-581): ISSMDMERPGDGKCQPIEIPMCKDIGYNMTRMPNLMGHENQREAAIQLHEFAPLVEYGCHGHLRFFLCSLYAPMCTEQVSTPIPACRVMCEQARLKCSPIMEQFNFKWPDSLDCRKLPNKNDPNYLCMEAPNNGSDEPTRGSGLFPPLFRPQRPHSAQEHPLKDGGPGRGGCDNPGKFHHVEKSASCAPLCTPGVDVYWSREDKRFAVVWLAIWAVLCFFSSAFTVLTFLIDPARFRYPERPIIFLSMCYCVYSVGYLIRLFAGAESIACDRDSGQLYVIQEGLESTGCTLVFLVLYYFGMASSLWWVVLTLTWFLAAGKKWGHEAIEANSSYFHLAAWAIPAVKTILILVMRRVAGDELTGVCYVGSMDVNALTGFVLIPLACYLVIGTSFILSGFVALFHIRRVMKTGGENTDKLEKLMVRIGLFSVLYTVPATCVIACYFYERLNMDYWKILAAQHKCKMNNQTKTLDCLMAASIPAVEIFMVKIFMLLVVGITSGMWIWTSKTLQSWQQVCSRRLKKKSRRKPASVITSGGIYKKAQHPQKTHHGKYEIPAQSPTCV
Chain of Wnt3a (P56704 19-352): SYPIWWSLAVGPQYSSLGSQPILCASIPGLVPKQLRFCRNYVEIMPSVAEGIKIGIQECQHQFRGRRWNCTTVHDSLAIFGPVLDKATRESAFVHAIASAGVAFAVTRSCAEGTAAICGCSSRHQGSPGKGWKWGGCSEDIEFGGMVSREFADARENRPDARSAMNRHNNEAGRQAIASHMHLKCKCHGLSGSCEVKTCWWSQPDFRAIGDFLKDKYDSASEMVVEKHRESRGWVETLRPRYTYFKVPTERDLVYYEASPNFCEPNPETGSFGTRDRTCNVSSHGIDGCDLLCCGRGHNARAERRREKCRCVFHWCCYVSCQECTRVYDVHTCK

Broadly, the Kd is the free concentration of one partner at which half of the binding sites on the other are occupied at equilibrium, for simple one-to-one binding. Wnt3a (from UniProt P56704): the dissociation constant Kd was 4.3 nM.
